From US20200155643

Molecular target: T1, Recombinant human protein C inhibitor (PCI, SERPINA5), P05154
T1 chain: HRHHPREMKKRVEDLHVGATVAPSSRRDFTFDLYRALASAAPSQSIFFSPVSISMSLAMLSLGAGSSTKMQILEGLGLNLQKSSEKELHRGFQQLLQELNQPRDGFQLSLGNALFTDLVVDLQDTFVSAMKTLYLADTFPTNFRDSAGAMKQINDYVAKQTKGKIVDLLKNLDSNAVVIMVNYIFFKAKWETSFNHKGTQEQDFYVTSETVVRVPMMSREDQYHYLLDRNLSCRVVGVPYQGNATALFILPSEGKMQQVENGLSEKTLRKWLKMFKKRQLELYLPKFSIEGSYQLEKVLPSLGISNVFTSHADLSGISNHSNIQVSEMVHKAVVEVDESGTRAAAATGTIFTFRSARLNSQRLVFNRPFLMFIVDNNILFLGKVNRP

B1: Recombinant human matriptase (protein)
chain: GSDEKDCDCGLRSFTRQARVVGGTDADEGEWPWQVSLHALGQGHICGASLISPNWLVSAAHCYIDDRGFRYSDPTQWTAFLGLHDQSQRSAPGVQERRLKRIISHPFFNDFTFDYDIALLELEKPAEYSSMVRPICLPDASHVFPAGKAIWVTGWGHTQYGGTGALILQKGEIRVINQTTCENLLPQQITPRMMCVGFLSGGVDSCQGDSGGPLSSVEADGRIFQAGVVSWGDGCAQRNKPGVYTRLPLFRDWIKENTGV
- cleavage of PCI (anti-PCI immunoblot): resulted in the appearance of cleaved forms of PCI
